Test results: US20260176659A1, “IMPROVED METHOD FOR THE PRODUCTION OF NATURAL VANILLIN” (BASE SE, priority 2022, published 2026)

Key:
[1] = Bioconversion of eugenol to vanillin: one-pot concurrent cascade EUGO + alkene cleavage oxygenase (5 mM scale); format: biochemical; details: for Reaction composition at 24 hours (%) 1a / Reaction composition at 24 hours (%) 2a / Reaction composition at 24 hours (%) 3a / Reaction composition at 24 hours (%) 5a / Conversion of 1a to 3a (%): 5 mM 1a; for Conversion of 1a to 3a (%): 24 h; for Reaction composition after 24 hours 1a (%) / Reaction composition after 24 hours 2a (%) / Reaction composition after 24 hours 3a (%) / Reaction composition after 24 hours 5a (%): Table 8a, CO-XX FD-CFE 1 mg/mL; for Reaction composition after 24 hours 1a (%) / Reaction composition after 24 hours 2a (%) / Reaction composition after 24 hours 3a (%) / Reaction composition after 24 hours 5a (%) / Product distribution after 24 hours 2a (%) / Product distribution after 24 hours 3a (%) / Product distribution after 24 hours 5a (%): eugenol 5 mM; for Product distribution after 24 hours 2a (%) / Product distribution after 24 hours 3a (%) / Product distribution after 24 hours 5a (%): Table 8b, CO-0X FD-CFE 1 mg/mL
How it was run: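 Cell-free extracts of EUGO (0.5 mg) and cleavage oxygenase (3 mg) were combined with catalase, 1 mM FeSO4 and 1 mM ascorbate in glycine-NaOH pH 9.0 (or Tris-HCl pH 8.0). The cascade ran with 5 mM eugenol (5% ethanol/DMSO cosolvent) at 30° C and 120 rpm overnight. Methanol-quenched samples were analysed by HPLC at 280/340 nm.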

[2] = Biotransformation of isoeugenol to vanillin: pH and solvent screening; format: biochemical
Description: Stock solution of rac-isoeugenol (100 mM) was prepared in DMSO and stored at 4° C. Each reaction mixtures (1 mL) were set up as follows: rac-isoeugenol (50 μL, final concentration 5 mM) was diluted in various buffers (100 mM, pH 7.0-10.5) in 4 mL glass vials, together with FeSO4 (0.5 mM) and DMSO (150 μL; final concentration including the part from substrate stock: 20% v/v). The reaction was initiated by the addition of IECO (cell free extract 1 mg/mL). Wild type E. coli BL21 (DE3) was used as negative control. The reaction was incubated for 24 hours at 30° C. and 120 rpm (rotary shaker). To improve the oxygenation, the vials were placed horizontally. The reaction was quenched with methanol (2 vol. equiv.), centrifuged at 20238 g for 5-10 mins and analysed by HPLC.
Stock solutions of rac-isoeugenol (100 mM) were prepared in different solvents and stored in the dark at 4° C. Each reaction mixtures (1 mL) were set up as follows: ra-isoeugenol (50 μL, final concentration 5 mM) was diluted in Glycine-NaOH (100 mM, pH 9.5) in 4 mL glass vials, together with FeSO4 (0.5 mM) and the respective cosolvent (0, 50 or 150 μL; final content of cosolvent including the part from the substrate stock: 5, 10 and 20% v/v). The reaction was initiated by the addition of IECO (cell free extract 1 mg/mL). […] The reaction was quenched with methanol (2 vol. equiv.), centrifuged at 20238 g and analysed by HPLC.

[3] = EUGO 0 mg/mL, IECO fresh CFE 4 mg/mL, cosolvent DMSO 5% v/v
[4] = EUGO 0 mg/mL, IECO fresh CFE 4 mg/mL, cosolvent EtOH 5% v/v
[5] = EUGO FD-CFE 1 mg/mL (row prints 2, see doubts), IECO FD-CFE 4 mg/mL, pH 9.0, catalase 10 mg/mL
[6] = EUGO FD-CFE 1 mg/mL, IECO FD-CFE 4 mg/mL, pH 8.0, catalase 10 mg/mL
[7] = EUGO FD-CFE 1 mg/mL, IECO FD-CFE 6 mg/mL, pH 8.0, catalase 10 mg/mL
[8] = EUGO FD-CFE 1 mg/mL, IECO FD-CFE 6 mg/mL, pH 9.0, catalase 10 mg/mL
[9] = EUGO FD-CFE 2 mg/mL, IECO FD-CFE 4 mg/mL, pH 8.0, catalase 10 mg/mL
[10] = EUGO FD-CFE 2 mg/mL, IECO FD-CFE 4 mg/mL, pH 9.0, catalase 10 mg/mL
[11] = EUGO FD-CFE 2 mg/mL, IECO FD-CFE 6 mg/mL, pH 8.0, catalase 10 mg/mL
[12] = EUGO FD-CFE 2 mg/mL, IECO FD-CFE 6 mg/mL, pH 9.0, catalase 10 mg/mL
[13] = EUGO FD-CFE 5 mg/mL, IECO FD-CFE 20 mg/mL, pH 8.0, catalase 10 mg/mL
[14] = EUGO FD-CFE 5 mg/mL, IECO FD-CFE 20 mg/mL, pH 9.0, catalase 10 mg/mL
[15] = EUGO fresh CFE 1 mg/mL, IECO fresh CFE 4 mg/mL, cosolvent DMSO 5% v/v
[16] = EUGO fresh CFE 1 mg/mL, IECO fresh CFE 4 mg/mL, cosolvent EtOH 5% v/v
[17] = EUGO FD-CFE 1 mg/mL, catalase 10 mg/mL, pH 8.0
[18] = EUGO FD-CFE 1 mg/mL, catalase 10 mg/mL, pH 9.0
[19] = replicates of concurrent cascade with EUGO, pH 8.0, SD of four experiments
[20] = replicates of concurrent cascade with EUGO, pH 9.0, SD of four experiments

B1: IECO: isoeugenol cleavage oxygenase from Pseudomonas nitroreducens (GenBank: ACP17973), SEQ ID NO: 24 (protein, listed as Pseudomonas nitroreducens)
chain: MARLNRNDPQLVGTLLPTRIEADLFDLEVDGEIPKSINGTFYRNTPEPQVTPQKFHTFIDGDGMASAFHFEDGHVDFISRWVKTARFTAERLARKSLFGMYRNPYTDDTSVKGLDRTVANTSIISHHGKVLAVKEDGLPYELDPRTLETRGRFDYDGQVTSQTHTAHPKYDPETGDLLFFGSAAKGEATPDMAYYIVDKHGKVTHETWFEQPYGAFMHDFAITRNWSIFPIMPATNSLSRLKAKQPIYMWEPELGSYIGVLPRRGQGSQIRWLKAPALWVFHVVNAWEVGTKIYIDLMESEILPFPFPNSQNQPFAPEKAVPRLTRWEIDLDSSSDEIKRTRLHDFFAEMPIMDFRFALQCNRYGFMGVDDPRKPLAHQQAEKIFAYNSLGIWDNHRGDYDLWYSGEASAAQEPAFVPRSPTAAEGDGYLLTVVGRLDENRSDLVILDTQDIQSGPVATIKLPFRLRAALHGCWVPRP
[1]; [3]
  Reaction composition at 24 hours (%) 1a: 97%
  Reaction composition at 24 hours (%) 2a: 2≤ %
  Reaction composition at 24 hours (%) 3a: 1≤ %
  Reaction composition at 24 hours (%) 5a: 1≤ %
  Conversion of 1a to 3a (%): 1≤ %
[1]; [4]
  Reaction composition at 24 hours (%) 1a: 97%
  Reaction composition at 24 hours (%) 2a: 2≤ %
  Reaction composition at 24 hours (%) 3a: 1≤ %
  Reaction composition at 24 hours (%) 5a: 1≤ %
  Conversion of 1a to 3a (%): 1≤ %
[1]; [5]
  Reaction composition at 24 hours (%) 1a: 2%
  Reaction composition at 24 hours (%) 2a: 3%
  Reaction composition at 24 hours (%) 3a: 53%
  Reaction composition at 24 hours (%) 5a: 1≤ %
  Conversion of 1a to 3a (%): 45%
[1]; [6]
  Reaction composition at 24 hours (%) 1a: 1%
  Reaction composition at 24 hours (%) 2a: 5%
  Reaction composition at 24 hours (%) 3a: 45%
  Reaction composition at 24 hours (%) 5a: 1≤ %
  Conversion of 1a to 3a (%): 40%
[1]; [7]
  Reaction composition at 24 hours (%) 1a: 2%
  Reaction composition at 24 hours (%) 2a: 4%
  Reaction composition at 24 hours (%) 3a: 49%
  Reaction composition at 24 hours (%) 5a: 1%
  Conversion of 1a to 3a (%): 44%
[1]; [8]
  Reaction composition at 24 hours (%) 1a: 3%
  Reaction composition at 24 hours (%) 2a: 3%
  Reaction composition at 24 hours (%) 3a: 59%
  Reaction composition at 24 hours (%) 5a: 1%
  Conversion of 1a to 3a (%): 50%
[1]; [9]
  Reaction composition at 24 hours (%) 1a: 2%
  Reaction composition at 24 hours (%) 2a: 4%
  Reaction composition at 24 hours (%) 3a: 48%
  Reaction composition at 24 hours (%) 5a: 2%
  Conversion of 1a to 3a (%): 40%
[1]; [10]
  Reaction composition at 24 hours (%) 1a: 1%
  Reaction composition at 24 hours (%) 2a: 4%
  Reaction composition at 24 hours (%) 3a: 52%
  Reaction composition at 24 hours (%) 5a: 2%
  Conversion of 1a to 3a (%): 44%
[1]; [11]
  Reaction composition at 24 hours (%) 1a: 3%
  Reaction composition at 24 hours (%) 2a: 5%
  Reaction composition at 24 hours (%) 3a: 44%
  Reaction composition at 24 hours (%) 5a: 3%
  Conversion of 1a to 3a (%): 41%
[1]; [12]
  Reaction composition at 24 hours (%) 1a: 3%
  Reaction composition at 24 hours (%) 2a: 4%
  Reaction composition at 24 hours (%) 3a: 50%
  Reaction composition at 24 hours (%) 5a: 2%
  Conversion of 1a to 3a (%): 49%
[1]; [13]
  Reaction composition at 24 hours (%) 1a: 1≤ %
  Reaction composition at 24 hours (%) 2a: 27%
  Reaction composition at 24 hours (%) 3a: 9%
  Reaction composition at 24 hours (%) 5a: 6%
  Conversion of 1a to 3a (%): 8%
[1]; [14]
  Reaction composition at 24 hours (%) 1a: 1≤ %
  Reaction composition at 24 hours (%) 2a: 18%
  Reaction composition at 24 hours (%) 3a: 15%
  Reaction composition at 24 hours (%) 5a: 5%
  Conversion of 1a to 3a (%): 13%
[1]; [15]
  Reaction composition at 24 hours (%) 1a: 3%
  Reaction composition at 24 hours (%) 2a: 49%
  Reaction composition at 24 hours (%) 3a: 44 ^ %
  Reaction composition at 24 hours (%) 5a: 4%
  Conversion of 1a to 3a (%): 42 ^ %
[1]; [16]
  Reaction composition at 24 hours (%) 1a: 4%
  Reaction composition at 24 hours (%) 2a: 5%
  Reaction composition at 24 hours (%) 3a: 86 ^ %
  Reaction composition at 24 hours (%) 5a: 5%
  Conversion of 1a to 3a (%): 48 ^ %
[1]; [17]
  Reaction composition after 24 hours 1a (%): 51%
  Reaction composition after 24 hours 2a (%): 52%
  Reaction composition after 24 hours 3a (%): 36%
  Reaction composition after 24 hours 5a (%): 12%
  Product distribution after 24 hours 2a (%): 67.8%
  Product distribution after 24 hours 3a (%): 17.6%
  Product distribution after 24 hours 5a (%): 14.6%
[1]; [18]
  Reaction composition after 24 hours 1a (%): ≤1%
  Reaction composition after 24 hours 2a (%): 24%
  Reaction composition after 24 hours 3a (%): 59%
  Reaction composition after 24 hours 5a (%): 18%
  Product distribution after 24 hours 2a (%): 49.4%
  Product distribution after 24 hours 3a (%): 30.7%
  Product distribution after 24 hours 5a (%): 19.9%
[1]; [19]
  Conversion of 1a to 3a (%): 31 ± 2%
  Reaction composition at 24 hours (%) 1a: 1≤ %
  Reaction composition at 24 hours (%) 2a: 51 ± 2%
  Reaction composition at 24 hours (%) 3a: 34 ± 2%
  Reaction composition at 24 hours (%) 5a: 15 ± 3%
[1]; [20]
  Conversion of 1a to 3a (%): 52 ± 3%
  Reaction composition at 24 hours (%) 1a: 1≤ %
  Reaction composition at 24 hours (%) 2a: 22 ± 2%
  Reaction composition at 24 hours (%) 3a: 59 ± 1%
  Reaction composition at 24 hours (%) 5a: 18 ± 1%
[1]; with EUGO, 5 mM substrate concentration
  overall conversion of 1a to vanillin 3a in the 2-step cascade: 50%
[2]; rac-isoeugenol 5 mM, buffers pH 7.0-10.5
  pH optimum of activity toward isoeugenol: 9.0
[2]; solvent screening 5, 10 and 20% v/v
  cosolvent tolerance, activity toward isoeugenol: tolerates a panel of cosolvents, with a preference for ethanol and DMSO
